According to patent US9730980B2:

Target: NR1D1 (pCDNA-Nr1d1 expression vector)

Substance: r-h-apoA-IV
- luciferase activity driven by the human G6pase promoter: 14.5%
